± gives the standard error. Variants at the floor of the assay were thinned out.
B1: glmS ribozyme (parent)
chain: AUAAAAGCGCCAGAACUACAGAAAUGUAGUUGACGAGGAGGAGGUUUAUCGAAUUUUCGGCGGAUGCCUCCAAA

Columns and labels:
Details in all cases: with glucosamine-6-phosphate
glucosamine-6-phosphate [1] = variants of: B1; assay: self-cleavage kobs at 40 uM GlcN6P; higher = faster cleavage; RNA array
How it was run: (§1)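 Barcoded ribozyme variants, transcribed in situ by E. coli RNA polymerase on sequenced MiSeq chips, were followed via a hybridised Cy3 probe at 37 °C. Glucosamine-6-phosphate ranged from 40 μM to 10 mM in HEPES/KCl/Mg(OAc)2 buffer. kobs came from decay fits to per-tile medians, and kcat and KM from weighted Michaelis–Menten fits.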

glucosamine-6-phosphate [2] = variants of: B1; assay: self-cleavage kobs at 10000 uM GlcN6P; higher = faster cleavage; RNA array
How it was run: as §1

glucosamine-6-phosphate [3] = variants of: B1; assay: self-cleavage kobs at 160 uM GlcN6P; higher = faster cleavage; RNA array
How it was run: as §1

glucosamine-6-phosphate [4] = variants of: B1; assay: self-cleavage kobs at 2500 uM GlcN6P; higher = faster cleavage; RNA array
How it was run: as §1

glucosamine-6-phosphate [5] = variants of: B1; assay: self-cleavage kobs at 640 uM GlcN6P; higher = faster cleavage; RNA array
How it was run: as §1

Row | Variant | self-cleavage kobs at 40 uM GlcN6P (glucosamine-6-phosphate [1]) | self-cleavage kobs at 10000 uM GlcN6P (glucosamine-6-phosphate [2]) | self-cleavage kobs at 160 uM GlcN6P (glucosamine-6-phosphate [3]) | self-cleavage kobs at 2500 uM GlcN6P (glucosamine-6-phosphate [4]) | self-cleavage kobs at 640 uM GlcN6P (glucosamine-6-phosphate [5])
1 | C8G U45C G62A | < 1e-05 s⁻¹ | < 1e-05 s⁻¹ |  |  | 
2 | G9A A39C | < 1e-05 s⁻¹ |  | < 1e-05 s⁻¹ | < 1e-05 s⁻¹ | 
3 | C8U G9C C10A G37U G40U G41A C50U | < 1e-05 s⁻¹ |  |  |  | 
4 | C8U A33U G66C | < 1e-05 s⁻¹ |  |  |  | 
5 | C10A A14C U45C C68U | < 1e-05 s⁻¹ | < 1e-05 s⁻¹ |  | < 1e-05 s⁻¹ | < 1e-05 s⁻¹
6 | G9U G51U | < 1e-05 s⁻¹ | < 1e-05 s⁻¹ | < 1e-05 s⁻¹ |  | < 1e-05 s⁻¹
7 | G9U G51C | < 1e-05 s⁻¹ | < 1e-05 s⁻¹ | < 1e-05 s⁻¹ |  | 
8 | C8U G38U G59U C67U | < 1e-05 s⁻¹ |  |  |  | 
9 | G9U C70U | < 1e-05 s⁻¹ | < 1e-05 s⁻¹ | < 1e-05 s⁻¹ |  | < 1e-05 s⁻¹
10 | C8G U31A A36G | < 1e-05 s⁻¹ |  |  |  | 
11 | G9U C68U C70U | < 1e-05 s⁻¹ | < 1e-05 s⁻¹ | < 1e-05 s⁻¹ | < 1e-05 s⁻¹ | < 1e-05 s⁻¹
12 | G9A G29A U31A G35U A36C C70U | < 1e-05 s⁻¹ | < 1e-05 s⁻¹ |  |  | 
13 | C8G G51U | < 1e-05 s⁻¹ | < 1e-05 s⁻¹ |  |  | < 1e-05 s⁻¹
14 | C8U G62U U69G | 0.00021 ± 7.2e-05 s⁻¹ | 0.000358 ± 0.00015 s⁻¹ |  |  | 
15 | C8U A39C | < 1e-05 s⁻¹ | < 1e-05 s⁻¹ | < 1e-05 s⁻¹ | < 1e-05 s⁻¹ | < 1e-05 s⁻¹
16 | G9A C34G | < 1e-05 s⁻¹ | < 1e-05 s⁻¹ | < 1e-05 s⁻¹ | < 1e-05 s⁻¹ | 
17 | G9A C68G | < 1e-05 s⁻¹ | < 1e-05 s⁻¹ | < 1e-05 s⁻¹ | < 1e-05 s⁻¹ | < 1e-05 s⁻¹
18 | G9U C11A G59A A64U | < 1e-05 s⁻¹ |  |  |  | 
19 | G9U U31G G32C G62A | < 1e-05 s⁻¹ |  |  |  | 
20 | G9A A14U A39G | < 1e-05 s⁻¹ |  |  | < 1e-05 s⁻¹ | 
21 | C10A A33U | < 1e-05 s⁻¹ | < 1e-05 s⁻¹ |  |  | 
22 | C10A A14C A42C G63A | < 1e-05 s⁻¹ | < 1e-05 s⁻¹ | < 1e-05 s⁻¹ |  | 
23 | C8U C34G | < 1e-05 s⁻¹ | < 1e-05 s⁻¹ | < 1e-05 s⁻¹ |  | 

Row | Variant | self-cleavage kobs at 40 uM GlcN6P (glucosamine-6-phosphate [1]) | self-cleavage kobs at 10000 uM GlcN6P (glucosamine-6-phosphate [2]) | self-cleavage kobs at 160 uM GlcN6P (glucosamine-6-phosphate [3]) | self-cleavage kobs at 2500 uM GlcN6P (glucosamine-6-phosphate [4]) | self-cleavage kobs at 640 uM GlcN6P (glucosamine-6-phosphate [5])
24 | G9C G29U | < 1e-05 s⁻¹ | < 1e-05 s⁻¹ | < 1e-05 s⁻¹ |  | < 1e-05 s⁻¹
25 | G9A U31G A39G A48C G60C | < 1e-05 s⁻¹ |  |  |  | 
26 | C8U G40U C70A | < 1e-05 s⁻¹ | < 1e-05 s⁻¹ |  |  | 
27 | C8U U30A G62A U65A C71U | < 1e-05 s⁻¹ |  |  |  | 
28 | C10A G32C G41A | < 1e-05 s⁻¹ |  |  |  | 
29 | C8U A15U U30G G35C G41U | < 1e-05 s⁻¹ |  |  | < 1e-05 s⁻¹ | < 1e-05 s⁻¹
30 | C8U G38C G43A G44C G63U | < 1e-05 s⁻¹ | < 1e-05 s⁻¹ |  |  | 
31 | C8G G60U A64U | < 1e-05 s⁻¹ | < 1e-05 s⁻¹ |  |  | 
32 | G9A A48G | < 1e-05 s⁻¹ | < 1e-05 s⁻¹ |  | < 1e-05 s⁻¹ | < 1e-05 s⁻¹
33 | C8G G66U | < 1e-05 s⁻¹ |  | < 1e-05 s⁻¹ | < 1e-05 s⁻¹ | < 1e-05 s⁻¹
34 | C8U G9U | < 1e-05 s⁻¹ |  | < 1e-05 s⁻¹ | < 1e-05 s⁻¹ | < 1e-05 s⁻¹
35 | C8U G9A | < 1e-05 s⁻¹ | < 1e-05 s⁻¹ | < 1e-05 s⁻¹ | < 1e-05 s⁻¹ | < 1e-05 s⁻¹
36 | G9U C10G A48C A52G | < 1e-05 s⁻¹ |  |  |  | 
37 | C10A G13U G37U G60A U65A | < 1e-05 s⁻¹ | < 1e-05 s⁻¹ |  |  | < 1e-05 s⁻¹
38 | G9A G62C | < 1e-05 s⁻¹ | < 1e-05 s⁻¹ |  |  | < 1e-05 s⁻¹
39 | C8G A48G U54A | < 1e-05 s⁻¹ | < 1e-05 s⁻¹ |  | < 1e-05 s⁻¹ | 
40 | C8G G63C | < 1e-05 s⁻¹ |  | < 1e-05 s⁻¹ | < 1e-05 s⁻¹ | < 1e-05 s⁻¹
41 | G9A U57G C67U | < 1e-05 s⁻¹ | < 1e-05 s⁻¹ |  |  | 
42 | G9A G37A | < 1e-05 s⁻¹ | < 1e-05 s⁻¹ | < 1e-05 s⁻¹ | < 1e-05 s⁻¹ | < 1e-05 s⁻¹
43 | C10A G38U G40A | < 1e-05 s⁻¹ | < 1e-05 s⁻¹ | < 1e-05 s⁻¹ | < 1e-05 s⁻¹ | < 1e-05 s⁻¹
44 | C8U G35C | < 1e-05 s⁻¹ | < 1e-05 s⁻¹ | < 1e-05 s⁻¹ | < 1e-05 s⁻¹ | 
45 | G9U C16G | < 1e-05 s⁻¹ |  |  | < 1e-05 s⁻¹ | 
46 | C8G G32U G38C G51U | < 1e-05 s⁻¹ |  |  |  | 

Reference: the supplement of paper PMC7125110
